91 sequences from the supplement of paper PMC9112550, “Optimization of the antimicrobial peptide Bac7 by deep mutational scanning” (BMC Biology, 2022) can be followed below.

This series concerns Escherichia coli TOP10. The experiment in a line: shrunken log2 fold change of peptide-encoding DNA abundance (4.5 h post-induction vs induction); higher = less antimicrobial activity (less host growth inhibition). To be noted: time post-induction: 4.5 h; library: site-saturation at positions 5, 18, 19, 20.
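Note: peptides expressed intracellularly from a pBAD plasmid library in pooled LB shake-flask culture, induced with 0.3% L-arabinose, DNA abundance read by NGS, three biological replicates, DESeq2 with apeglm shrinkage.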

Take RRIRGRPPRLPRPRPRPIFCPRP: the “shrunken log2 fold change” value turned out to be 0.333. As to RRIRQRPPRLPRPRPRPGDYPRP, the “shrunken log2 fold change” value is -0.17. Regarding RRIRHRPPRLPRPRPRPWHEPRP, the “shrunken log2 fold change” value was -0.0659. As for RRIRNRPPRLPRPRPRPYQWPRP, the “shrunken log2 fold change” value is -0.098. As for RRIRNRPPRLPRPRPRPWHIPRP, the “shrunken log2 fold change” value is -0.325. Then RRIRCRPPRLPRPRPRPMTFPRP, with -0.0603; and RRIRFRPPRLPRPRPRPSQCPRP, with 0.153. RRIRYRPPRLPRPRPRPWRGPRP: the “shrunken log2 fold change” value amounted to 0.318. Then RRIRCRPPRLPRPRPRPRGMPRP, with 1.56; and RRIRVRPPRLPRPRPRPALIPRP, with 0.342. Turning to RRIRVRPPRLPRPRPRPVKNPRP, the “shrunken log2 fold change” value was determined as 0.118. For the sequence RRIRFRPPRLPRPRPRPEIMPRP, the “shrunken log2 fold change” value is -0.269. Then RRIRPRPPRLPRPRPRPHGCPRP, with 0.0229. Then RRIRTRPPRLPRPRPRPVQVPRP, with 0.0995; and RRIRMRPPRLPRPRPRPYAHPRP, with 0.013. RRIRARPPRLPRPRPRPSANPRP: the “shrunken log2 fold change” value turned out to be 0.344. Regarding RRIRARPPRLPRPRPRPDLAPRP, the “shrunken log2 fold change” value was determined as 1.07. Take RRIRKRPPRLPRPRPRPGPTPRP: the “shrunken log2 fold change” value came out at 0.65. As for RRIRFRPPRLPRPRPRPEFRPRP, the “shrunken log2 fold change” value is -0.0593.

As to RRIRRRPPRLPRPRPRPIPSPRP, the “shrunken log2 fold change” value is 0.247. For RRIRERPPRLPRPRPRPNCWPRP, the “shrunken log2 fold change” value came to 0.659. Regarding RRIRARPPRLPRPRPRPAYIPRP, the “shrunken log2 fold change” value is -0.148.

For RRIRVRPPRLPRPRPRPWQGPRP, the “shrunken log2 fold change” value is 0.0284. Regarding RRIRHRPPRLPRPRPRPKKLPRP, the “shrunken log2 fold change” value is -0.104. For the sequence RRIRNRPPRLPRPRPRPEFQPRP, the “shrunken log2 fold change” value was -0.00325. For the sequence RRIRKRPPRLPRPRPRPAGPPRP, the “shrunken log2 fold change” value came to 0.368. As for RRIRQRPPRLPRPRPRPLKCPRP, the figure is -0.139. With RRIRRRPPRLPRPRPRPELSPRP, the “shrunken log2 fold change” value came out at 0.0649. As for RRIRWRPPRLPRPRPRPKYYPRP, the figure is -0.84; as for RRIRERPPRLPRPRPRPRISPRP, -1.36; as for RRIRPRPPRLPRPRPRPNSGPRP, 0.0788. RRIRMRPPRLPRPRPRPHYFPRP: the “shrunken log2 fold change” value was -0.0364. As to RRIRERPPRLPRPRPRPEGIPRP, the “shrunken log2 fold change” value came out at 0.0236.

Regarding RRIRKRPPRLPRPRPRPTLNPRP, the “shrunken log2 fold change” value came out at 0.505. Take RRIRDRPPRLPRPRPRPMFQPRP: the “shrunken log2 fold change” value was -0.0111. Regarding RRIRGRPPRLPRPRPRPPGWPRP, the “shrunken log2 fold change” value stood at 1.04. As to RRIRHRPPRLPRPRPRPGQIPRP, the “shrunken log2 fold change” value is -0.00195. Consider RRIRHRPPRLPRPRPRPRGEPRP, for which the “shrunken log2 fold change” value was -0.0677. Turning to RRIRNRPPRLPRPRPRPHVCPRP, the “shrunken log2 fold change” value was -0.00663. For the sequence RRIRHRPPRLPRPRPRPKRGPRP, the “shrunken log2 fold change” value turned out to be 0.0662. For the sequence RRIRWRPPRLPRPRPRPRHVPRP, the “shrunken log2 fold change” value is -0.0116. For RRIRGRPPRLPRPRPRPALQPRP, the “shrunken log2 fold change” value came out at 0.333. With RRIRARPPRLPRPRPRPDPAPRP, the “shrunken log2 fold change” value came to 1.3.

As for RRIRQRPPRLPRPRPRPNWRPRP, the “shrunken log2 fold change” value was 0.107. Then RRIRFRPPRLPRPRPRPNATPRP, with 0.0167. For the sequence RRIRHRPPRLPRPRPRPTHEPRP, the “shrunken log2 fold change” value came out at 0.0424. Regarding RRIRLRPPRLPRPRPRPMITPRP, the “shrunken log2 fold change” value was -0.07.

As for RRIRNRPPRLPRPRPRPKNDPRP, the “shrunken log2 fold change” value is -0.0949.

Turning to RRIRCRPPRLPRPRPRPQQGPRP, the “shrunken log2 fold change” value was determined as 0.188. Regarding RRIRSRPPRLPRPRPRPCFSPRP, the “shrunken log2 fold change” value is -0.378. On to RRIRHRPPRLPRPRPRPLGCPRP, for which the “shrunken log2 fold change” value was 0.116. With RRIRKRPPRLPRPRPRPESLPRP, the “shrunken log2 fold change” value was -0.024. For the sequence RRIRNRPPRLPRPRPRPWWNPRP, the “shrunken log2 fold change” value is -0.141. Then RRIRRRPPRLPRPRPRPWPEPRP, with -0.201. On to RRIRHRPPRLPRPRPRPPLNPRP, for which the “shrunken log2 fold change” value is -0.0242. Regarding RRIRLRPPRLPRPRPRPVANPRP, the “shrunken log2 fold change” value was -0.0731.

For the sequence RRIRNRPPRLPRPRPRPRCAPRP, the “shrunken log2 fold change” value was determined as 0.708. As for RRIRVRPPRLPRPRPRPMAVPRP, the figure is -0.0191; as for RRIRTRPPRLPRPRPRPMARPRP, 0.193.

Regarding RRIRTRPPRLPRPRPRPIHSPRP, the “shrunken log2 fold change” value is -0.191. As for RRIRARPPRLPRPRPRPMFCPRP, the “shrunken log2 fold change” value was determined as 0.211.

On to RRIRLRPPRLPRPRPRPFCEPRP, for which the “shrunken log2 fold change” value was -0.157. On to RRIRLRPPRLPRPRPRPSVIPRP, for which the “shrunken log2 fold change” value is -0.183. In the case of RRIRFRPPRLPRPRPRPEEPPRP, the “shrunken log2 fold change” value amounted to 0.248. As for RRIRARPPRLPRPRPRPNLPPRP, the “shrunken log2 fold change” value turned out to be 0.158. Turning to RRIRNRPPRLPRPRPRPPWTPRP, the “shrunken log2 fold change” value turned out to be 0.272. In the case of RRIRKRPPRLPRPRPRPMFYPRP, the “shrunken log2 fold change” value is -0.169. As for RRIRKRPPRLPRPRPRPDNLPRP, the figure is -0.0561. For RRIRHRPPRLPRPRPRPKNNPRP, the “shrunken log2 fold change” value was -0.74.

As for RRIRKRPPRLPRPRPRPWMCPRP, the “shrunken log2 fold change” value is -0.316. Then RRIRIRPPRLPRPRPRPPMCPRP, with -0.0556. As to RRIRCRPPRLPRPRPRPRAEPRP, the “shrunken log2 fold change” value amounted to 0.539. For the sequence RRIRWRPPRLPRPRPRPCMNPRP, the “shrunken log2 fold change” value came to 0.297. Consider RRIRKRPPRLPRPRPRPGMSPRP, for which the “shrunken log2 fold change” value is 0.361. RRIRARPPRLPRPRPRPTMMPRP: the “shrunken log2 fold change” value was 0.496.

Take RRIRSRPPRLPRPRPRPQQHPRP: the “shrunken log2 fold change” value came out at 0.0668. For the sequence RRIRTRPPRLPRPRPRPPQKPRP, the “shrunken log2 fold change” value was 0.0412.

Consider RRIRSRPPRLPRPRPRPVGLPRP, for which the “shrunken log2 fold change” value came to 0.107.

Regarding RRIRPRPPRLPRPRPRPGVIPRP, the “shrunken log2 fold change” value is -0.321. As for RRIRRRPPRLPRPRPRPVVLPRP, the figure is -0.0732; as for RRIRWRPPRLPRPRPRPIQFPRP, -0.0539; as for RRIRIRPPRLPRPRPRPYLIPRP, -1.6.

Consider RRIRMRPPRLPRPRPRPGYTPRP, for which the “shrunken log2 fold change” value was -0.177. As for RRIRNRPPRLPRPRPRPLQSPRP, the figure is -0.0505. Regarding RRIRARPPRLPRPRPRPGITPRP, the “shrunken log2 fold change” value was 0.335.

With RRIRRRPPRLPRPRPRPRPMPRP, the “shrunken log2 fold change” value was determined as 0.76. Regarding RRIRDRPPRLPRPRPRPQKPPRP, the “shrunken log2 fold change” value is -0.00349. Take RRIRPRPPRLPRPRPRPSQNPRP: the “shrunken log2 fold change” value is -0.107. For RRIRMRPPRLPRPRPRPIAKPRP, the “shrunken log2 fold change” value stood at 0.494. Then RRIRDRPPRLPRPRPRPKTAPRP, with 0.00938. As for RRIRGRPPRLPRPRPRPNDEPRP, the figure is 0.482.
